T1: human FcRH5 protein fragment (soluble) (human, UniProt Q96RD9 16-851)
T1 construct: whole entry named; also called soluble human FcRH5; Human FcRH5 (BIACORE analyte)
T1 sequence: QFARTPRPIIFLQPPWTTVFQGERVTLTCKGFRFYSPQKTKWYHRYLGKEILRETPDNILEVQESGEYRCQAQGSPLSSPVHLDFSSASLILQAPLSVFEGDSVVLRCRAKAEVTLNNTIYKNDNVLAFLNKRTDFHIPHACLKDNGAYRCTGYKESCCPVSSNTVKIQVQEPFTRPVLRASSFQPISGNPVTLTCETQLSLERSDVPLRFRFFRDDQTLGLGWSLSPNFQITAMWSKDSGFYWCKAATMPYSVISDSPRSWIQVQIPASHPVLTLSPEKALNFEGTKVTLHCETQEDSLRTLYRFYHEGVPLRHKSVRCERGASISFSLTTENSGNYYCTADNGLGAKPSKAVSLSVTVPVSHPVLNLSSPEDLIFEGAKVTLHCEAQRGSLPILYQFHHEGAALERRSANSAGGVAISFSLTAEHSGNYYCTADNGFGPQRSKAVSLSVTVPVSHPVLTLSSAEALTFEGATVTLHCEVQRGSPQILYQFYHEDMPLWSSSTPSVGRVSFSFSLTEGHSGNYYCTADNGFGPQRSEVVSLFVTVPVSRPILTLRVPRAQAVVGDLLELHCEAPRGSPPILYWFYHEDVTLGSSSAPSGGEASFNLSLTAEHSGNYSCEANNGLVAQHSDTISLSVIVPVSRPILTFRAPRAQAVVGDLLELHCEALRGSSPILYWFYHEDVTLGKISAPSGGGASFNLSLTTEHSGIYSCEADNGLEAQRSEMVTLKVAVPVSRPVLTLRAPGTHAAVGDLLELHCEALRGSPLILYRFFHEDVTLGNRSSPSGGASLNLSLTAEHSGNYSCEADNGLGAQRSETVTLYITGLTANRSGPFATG

T2: cynomolgus FcRH5 protein fragment (soluble) (cynomolgus monkey)
T2 construct: whole entry named; also called Cyno FcRH5 (BIACORE analyte)
T2 chain: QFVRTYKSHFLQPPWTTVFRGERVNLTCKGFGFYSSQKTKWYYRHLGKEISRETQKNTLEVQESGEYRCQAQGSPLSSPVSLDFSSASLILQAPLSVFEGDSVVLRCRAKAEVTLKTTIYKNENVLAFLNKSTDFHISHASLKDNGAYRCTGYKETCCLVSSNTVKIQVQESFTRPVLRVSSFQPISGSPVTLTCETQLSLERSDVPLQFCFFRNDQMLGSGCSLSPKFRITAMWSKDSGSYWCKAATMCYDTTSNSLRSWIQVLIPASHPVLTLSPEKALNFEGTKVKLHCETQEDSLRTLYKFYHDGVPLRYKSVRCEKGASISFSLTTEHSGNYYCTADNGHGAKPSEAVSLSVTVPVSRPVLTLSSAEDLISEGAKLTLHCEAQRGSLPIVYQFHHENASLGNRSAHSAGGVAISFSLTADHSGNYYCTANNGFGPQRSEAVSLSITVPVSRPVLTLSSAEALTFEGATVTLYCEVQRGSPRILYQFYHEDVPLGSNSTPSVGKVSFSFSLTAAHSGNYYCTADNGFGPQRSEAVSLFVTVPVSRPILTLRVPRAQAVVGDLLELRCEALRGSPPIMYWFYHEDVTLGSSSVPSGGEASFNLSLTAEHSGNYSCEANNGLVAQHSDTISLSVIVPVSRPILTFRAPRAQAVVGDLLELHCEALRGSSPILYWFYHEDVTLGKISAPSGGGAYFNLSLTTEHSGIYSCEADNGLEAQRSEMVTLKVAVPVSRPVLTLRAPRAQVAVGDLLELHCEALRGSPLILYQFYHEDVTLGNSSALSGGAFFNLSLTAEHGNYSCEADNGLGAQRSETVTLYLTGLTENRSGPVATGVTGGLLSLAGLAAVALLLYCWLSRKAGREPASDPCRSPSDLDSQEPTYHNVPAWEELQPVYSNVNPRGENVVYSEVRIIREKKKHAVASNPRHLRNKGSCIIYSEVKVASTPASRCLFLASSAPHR

T3: human FcRH1 (full-length, on SVT2 cells) (human, UniProt Q96LA6 17-429)
T3 construct: whole, on cells; also called SVT2-FcRH1
T3 sequence (looked up): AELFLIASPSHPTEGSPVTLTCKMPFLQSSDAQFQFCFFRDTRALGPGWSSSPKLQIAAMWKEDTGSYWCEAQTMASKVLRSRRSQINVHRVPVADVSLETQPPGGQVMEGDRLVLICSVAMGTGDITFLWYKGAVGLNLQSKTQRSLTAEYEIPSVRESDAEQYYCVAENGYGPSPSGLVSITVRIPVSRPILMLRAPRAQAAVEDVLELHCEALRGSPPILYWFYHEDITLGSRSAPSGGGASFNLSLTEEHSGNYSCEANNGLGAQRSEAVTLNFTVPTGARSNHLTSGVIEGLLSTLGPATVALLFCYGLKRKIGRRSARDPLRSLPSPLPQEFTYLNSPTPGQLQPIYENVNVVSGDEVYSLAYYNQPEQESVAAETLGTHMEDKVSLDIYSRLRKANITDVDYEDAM

T4: human FcRH4 (full-length, on SVT2 cells) (human, UniProt Q96PJ5 20-515)
T4 construct: whole, on cells; also called SVT2-FcRH4
T4 sequence (looked up): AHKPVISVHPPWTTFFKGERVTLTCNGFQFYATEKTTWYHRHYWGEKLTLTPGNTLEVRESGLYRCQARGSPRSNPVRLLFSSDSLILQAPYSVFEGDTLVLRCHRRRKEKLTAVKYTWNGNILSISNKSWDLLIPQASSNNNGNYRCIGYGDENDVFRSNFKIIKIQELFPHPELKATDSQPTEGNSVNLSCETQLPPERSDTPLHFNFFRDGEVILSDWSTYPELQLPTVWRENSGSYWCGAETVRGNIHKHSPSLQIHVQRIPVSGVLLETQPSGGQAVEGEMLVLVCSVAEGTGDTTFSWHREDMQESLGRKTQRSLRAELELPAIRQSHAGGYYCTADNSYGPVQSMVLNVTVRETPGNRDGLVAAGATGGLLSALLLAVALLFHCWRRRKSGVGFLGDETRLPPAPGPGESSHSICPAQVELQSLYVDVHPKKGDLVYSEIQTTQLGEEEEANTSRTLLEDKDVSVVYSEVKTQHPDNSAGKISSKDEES


Columns and labels:
[1] = molecular target: T1, human FcRH5 protein fragment (soluble); assay: SPR (BIACORE), IgG captured via anti-human IgG, FcRH5 protein fragment as analyte (100 and 500 nM)
Description: (§1) Briefly, a human IgG capture surface was generated on a Series S CM5 chip using amine coupling and the human IgG capture kit (GE Life Sciences, Piscataway, NJ). Test antibodies were then captured on flow cells 2, 3, or 4, with flow cell 1 used as a reference. An FcRH5 protein fragment was used as the analyte, with a flow rate of […]. Between injections the capture surface was regenerated by a 30-second injection of 3M magnesium chloride or 10 mM glycine, pH 1.5. Interactions were assessed at 25° C. in 10 mM HEPES pH7.4, 150 mM NaCl, and 0.05% Tween 20 (HBSP). Reference data from the reference flow cell and from injection of buffer alone were subtracted prior to kinetic analysis. Kinetic information was calculated by fitting data to a 1:1 binding model. Reference subtraction and data fitting were performed using BIAevaluation software (GE Life Sciences, Piscataway, NJ).
(§2) For affinity screening of HVR-H2 Trp52 and Met64 variants (Table 7), antibodies were expressed by transient transfection of Expi293 cells and purified using tip columns that were custom packed with affinity resin MabSelect SuRe (Glygen Corp., Columbia, MD & GE Life Sciences, Piscataway, NJ). […] Binding of FcRH5 protein fragment to captured antibodies was monitored at 100 nM and 500 nM. Association and dissociation were monitored at a flow rate of 40 μl/min, for 180 s and 300 s, respectively.

[2] = molecular target: T1, human FcRH5 protein fragment (soluble); assay: SPR, hIgG capture, 1:1 model
Description: as §1
(§3) Kinetic characterization experiments were carried out (see Table 8). In these experiments, binding of soluble FcRH5 protein fragment to purified antibodies in human TDB antibody format was analyzed at six different non-zero concentrations (a 1:3 dilution series, one concentration injected twice as a replicate). Flow rate was set at 40 μl/min and association and dissociation monitored for 600 s.

[3] = molecular target: T2, cynomolgus FcRH5 protein fragment …; assay: SPR, hIgG capture, 1:1 model
Description: as §1, §3

[4] = molecular target: T1, human FcRH5 protein fragment (soluble); assay: BIACORE, human IgG1, soluble human FcRH5
[5] = molecular target: T1, human FcRH5 protein fragment (soluble); assay: SPR, hIgG capture, screening
Description: as §1, §2

[6] = molecular target: T1, human FcRH5 protein fragment (soluble); assay: BIACORE, TDB format
[7] = molecular target: T3, human FcRH1 (full-length, on SVT2 cells); assay: FACS, SVT2 cells
Description: (§4) Human FcRH5, cyno FcRH5, human FcRH1, FcRH2, FcRH3, and FcRH4 transfected mouse SVT2 cells were used to test binding and cross-reactivity of FcRH5 TDBs. The method was carried out as follows. Cultured SVT2 cells were lifted using non-enzyme cell dissociation buffer (Sigma, #C5914). 1×10⁵ cells were suspended in 100 μL and incubated with FcRH5 TDBs at 3 μg/ml. […] Cells were washed twice with FACS buffer before flow cytometry analysis was carried out on a FACSCalibur.

[8] = molecular target: T4, human FcRH4 (full-length, on SVT2 cells); assay: FACS, SVT2 cells
Description: as §4

Kd [1] | Kd [2] | koff [2] | kon [2] | Kd [3] | koff [3] | kon [3] | Fold improvement over hu1G7.v1 [4] | Kd [4] | Kd [5] | Kd [6] | binding result [7] | binding result [8] | Binder
 | 2.6 nM | 0.002 s⁻¹ | 700000 M⁻¹ s⁻¹ | 7.7 nM | 0.001 s⁻¹ | 100000 M⁻¹ s⁻¹ |  |  |  |  |  |  | hu1G7.v1.4 (hIgG1) (antibody, V domains shown, hIgG1) VH: EVQLVESGPGLVKPSETLSLTCTVSGFSLTRFGVHWVRQPPGKGLEWLGVIWRGGSTDYNAAFMSRLTISKDNSKNQVSLKLSSVTAADTAVYYCSNHYYGSSDYALDNWGQGTLVTVSS VL: DIQMTQSPSSLSASVGDRVTITCKASQDVRNLVVWFQQKPGKAPKLLIYSGSYRYSGVPSRFSGSGSGTDFTLTISSLQPEDFATYYCQQHYSPPYTFGQGTKVEIK
 |  |  |  |  |  |  |  |  |  | 0.6 nM | no binding (tested: 3 µg/ml) | no binding (tested: 3 µg/ml) | hu1G7.v1.7/38E4.v1 TDB (bispecific antibody, V domains shown, knob-into-hole TDB; also called 1G7.v1.7 TDB) VH 1: EVQLVESGPGLVKPSETLSLTCTVSGFSTTRFGVHWVRQPPGKGLEWLGVIWRGGSTDYNAAFMSRLTISKDNSKNQVSLKLSSVTAADTAVYYCSNHYYGSSDYALDNWGQGTLVTVSS VL 1: DIQMTQSPSSLSASVGDRVTITCKASQDVRNLVVWFQQKPGKAPKLLIYSGYYRYTGVPSRFSGSGSGTDFTLTISSLQPEDFATYYCQQHYQPPYTFGQGTKVEIK VH 2: EVQLVQSGAEVKKPGASVKVSCKASGFTFTSYYIHWVRQAPGQGLEWIGWIYPENDNTKYNEKFKDRVTITADTSTSTAYLELSSLRSEDTAVYYCARDGYSRYYFDYWGQGTLVTVSS VL 2: DIVMTQSPDSLAVSLGERATINCKSSQSLLNSRTRKNYLAWYQQKPGQSPKLLIYWTSTRKSGVPDRFSGSGSGTDFTLTISSLQAEDVAVYYCKQSFILRTFGQGTKVEIK

More lines, now with the values behind:

Binder | Kd [1] | Kd [2] | koff [2] | kon [2] | Kd [3] | koff [3] | kon [3] | Fold improvement over hu1G7.v1 [4] | Kd [4] | Kd [5] | Kd [6] | binding result [7] | binding result [8]
hu1G7.v85 (hIgG1) (antibody, V domains shown, bivalent hIgG1; also called hu1G7.v1.4.M64V) VH: EVQLVESGPGLVKPSETLSLTCTVSGFSLTRFGVHWVRQPPGKGLEWLGVIWRGGSTDYNAAFVSRLTISKDNSKNQVSLKLSSVTAADTAVYYCSNHYYGSSDYALDNWGQGTLVTVSS VL: DIQMTQSPSSLSASVGDRVTITCKASQDVRNLVVWFQQKPGKAPKLLIYSGSYRYSGVPSRFSGSGSGTDFTLTISSLQPEDFATYYCQQHYSPPYTFGQGTKVEIK | 2.5 nM | 2.5 nM | 0.002 s⁻¹ | 600000 M⁻¹ s⁻¹ | 7.2 nM | 0.001 s⁻¹ | 100000 M⁻¹ s⁻¹ | 17 fold | 0.8 nM | 2.5 nM |  |  | 
hu1G7.v1.5/38E4.v1 TDB (bispecific antibody, V domains shown, knob-into-hole TDB; also called 1G7.v1.5 TDB) VH 1: EVQLVESGPGLVKPSETLSLTCTVSGFSLTRFGVHWVRQPPGKGLEWLGVIWRGGSTDYNAAFMSRLTISKDNSKNQVSLKLSSVTAADTAVYYCSNHYYGSSDYALDNWGQGTLVTVSS VL 1: DIQMTQSPSSLSASVGDRVTITCKASQDVSNIVVWFQQKPGKSPKLLIYSGYYRYTGVPSRFSGSGSGTDFTLTISSLQPEDFATYYCQQQFQPPYTFGQGTKVEIK VH 2: EVQLVQSGAEVKKPGASVKVSCKASGFTFTSYYIHWVRQAPGQGLEWIGWIYPENDNTKYNEKFKDRVTITADTSTSTAYLELSSLRSEDTAVYYCARDGYSRYYFDYWGQGTLVTVSS VL 2: DIVMTQSPDSLAVSLGERATINCKSSQSLLNSRTRKNYLAWYQQKPGQSPKLLIYWTSTRKSGVPDRFSGSGSGTDFTLTISSLQAEDVAVYYCKQSFILRTFGQGTKVEIK |  |  |  |  |  |  |  |  |  |  | 1.1 nM | no binding (tested: 3 µg/ml) | no binding (tested: 3 µg/ml)
